The values that follow come from PMC6755802.

In this assay the target is IL-2 binary complex stapler scFv, recombinantly expressed (human). Description: SPR; biotinylated scFv immobilised on Biacore SA chip at low density; analytes flowed 60 s; complexes pre-incubated 30 min at room temperature; 25 °C; HBS-P+ with 0.2% BSA; KD from equilibrium titration, 1:1 model; in Fig. 1D all proteins at 60 μM.

One may read the Kd as the constant that tells how readily two partners part at equilibrium.

For “Super-2/IL-2Rβ binary complex (from UniProt P60568 21-153; P14784 27-240)”, the Kd stood at 210 nM.
